This sample holds only a part of the variants without activity.
B1: TPR 5TU (parent)
chain: GGAUCUUCUCGAUCUAACAAAAAAGACAAAUCUGCCACAAAGCUUGAGAGCAUCUUCGGAUGCAGAGGCGGCAGCCUUCGGUGGCGCGAUAGCGCCAACGUUCUCAACUAUGACACGCAAAACGCGUGCUCCGUUGAAUGGAGUUUAUCAUG

Variants of: B1
Assay: polymerase ribozyme fitness, log enrichment relative to wild type (log ratio); higher = more active; in vitro selection for triplet polymerase activity
Method in brief: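 Only genotypes with ≥10 input reads and ≥1 read per output were kept after Illumina sequencing of input and output libraries. These libraries were PCR-built, transcribed mutants of each subunit of a heterodimeric triplet polymerase ribozyme, each put through one triplicate in vitro selection round with frozen incubation at −7 °C, gel excision of extended constructs, streptavidin-bead capture and RT-PCR. Fitness is a logarithmic ratio of genotype enrichment to wild-type enrichment, from inverse-variance-weighted replicate averages, with the logarithm in base 2.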

| Variant | polymerase ribozyme fitness (log ratio) |
| --- | --- |
| A20U A40U U56A C96A G141C | -2.73 |
| A20U A52U C76A C93A | ≤ -4.2 |
| A20U G83A C96G C118U U134A U144A | -3.46 |
| A21C A24U C54G C85U A121C | -0.525 |
| A20U C32G C57U A73G U82G G92A | ≤ -4.2 |
| A20U A22C U82G G86U U101G C103G G143U | ≤ -4.2 |
| A20U C32G A40G U55G | -4.19 |
| A20U A47C | -0.824 |
| A20U U82A C93U U145G | -2.69 |
| A20U C96U A98G | -1.71 |
| A20U A39U C51G A66C C93G U134A | ≤ -4.2 |
| A20U A52G C75U G88A C103G A119C | ≤ -4.2 |
| A20U C54G C87U A115G C149U | ≤ -4.2 |
| A20U A22U A121U G128A C129U A137C A138C | ≤ -4.2 |
| A20U A30U A37U C51G C93U C95A C96G C116G | ≤ -4.2 |
| A20U C51U G83A C93G C96U C103A C105A | ≤ -4.2 |
| A20U A23U A64C A91G A107G | ≤ -4.2 |
| A20U G42C C75A C105U C116U A120G G128A U146A | ≤ -4.2 |
| A20U U61A | -2.43 |
| A20U U55G C93G G94C A142G | ≤ -4.2 |
| A20U U53A A120G | -2.23 |
| A20U A40U A49C G94A C99A G143A | ≤ -4.2 |
| A20U A29G G48C A49C G117A U134G A137C U139A | ≤ -4.2 |
| A20U G42A G62A G86U U134G G140U | ≤ -4.2 |

| Variant | polymerase ribozyme fitness (log ratio) |
| --- | --- |
| A20U C85G C125A U145C | -3.41 |
| A20U C35U G59C C75U C87U C99U A137U A138U | ≤ -4.2 |
| A20U U61A C72A C75U C93G C99A C131G | ≤ -4.2 |
| A20U A122U U144G | -0.756 |
| A20U C93A | -2.86 |
| A20U C93G | ≤ -4.2 |
| A20U A37C A52G G124U | -2.09 |
| A20U C27A C38G C54U C79U G112A | ≤ -4.2 |
| A20U A52G G58A C76G G81A G86A A122C | ≤ -4.2 |
| A20U C32U U56A A142U | -3.91 |
| A20U G50A G86U C96G | ≤ -4.2 |
| A20U A29U U55A A66C A106U A138U | ≤ -4.2 |
| A20U U56A A73G G94A U101A | -2.45 |
| A20U A30G U53A U55G C63G G141U | ≤ -4.2 |
| A20U U33A G83A G86A G100A C149U | ≤ -4.2 |
| A20U A24G C32G U78A G83C | ≤ -4.2 |
| A20U A41U U55A A66U G84A C116A | ≤ -4.2 |
| A20U A41U G83U A89C C96G A150U | -2.06 |
| A20U A23C A47C U55G G86U A91G | ≤ -4.2 |
| A20U C27U G42U A52C U55A C95G C96U | ≤ -4.2 |
| A21C A28U A30U A47G | ≤ -4.2 |
| A20U U55A A147C | -2.31 |
| A21C A22U C54U A73G A89G | -1.48 |
| A20U G46C G62U C75G G92A G140C | ≤ -4.2 |

| Variant | polymerase ribozyme fitness (log ratio) |
| --- | --- |
| A20U C54A C96G C108G U109G C118G C132A G143A U148A C149U | ≤ -4.2 |
| A20U A49G C85U A110G U148A | ≤ -4.2 |
| A20U G86A C87G A91U C118A | ≤ -4.2 |
| A20U A23G G88A C99G C149G | ≤ -4.2 |
| A20U U31C U109G | -0.957 |
| A20G U102G A107U C116U A142U | ≤ -4.2 |
| A20U U31C A41C C51A | -2.21 |
| A20U U56G G65A C76U C85A G141C U148C | ≤ -4.2 |
| A20U G48A A60G U139A A142C A147G | ≤ -4.2 |
| A20U A47U A49C U53A G80C A91U C96U A137G G140U | ≤ -4.2 |
| A20U G71A C95A | ≤ -4.2 |
| A20U G83U U90G C99A A107U U148A | ≤ -4.2 |
| A20U U44G G46A G59C C96A A115C | ≤ -4.2 |
| A21C A23U A24U G92A A106G G133A | ≤ -4.2 |
| A20U C57U A66U C95A U102C G141A U145G | ≤ -4.2 |
| A20U U45A C87G | -4.13 |
| A20U A52U A89C | -3.39 |
| A20U U45A C118A | -3.82 |
| A21C A26C G71C C76G C87A C108U | ≤ -4.2 |
| A20U A47G G50U C85G | -3.77 |
| A20U C63A G84U C87U | -3.3 |
| A20U A29G A91C C93A G128U | ≤ -4.2 |
| A20U A28U A39U G83A G141A | -4.1 |
| A20U G74A A137U | ≤ -4.2 |

| Variant | polymerase ribozyme fitness (log ratio) |
| --- | --- |
| A20U A23G G50U G86A A110C C129G G140A | ≤ -4.2 |
| A20U U31G U55A A73G C85G C87G U135C U148C | ≤ -4.2 |
| A20U A49G A66C A73U C79U A106U A107C | ≤ -4.2 |
| A20U A73G C79A C96G | ≤ -4.2 |
| A20U A24C C54U C63U G65U G84A C132G U148A | ≤ -4.2 |
| A20U A21C U102A C125G | -3.5 |
| A21C A24U A40G U144A | -3.76 |
| A20U A40C U55A A73U | -3.94 |
| A20U A22G C51A G92A C93A C132U | ≤ -4.2 |
| A20U G94A | -1.88 |
| A20U G48A G84A G152C | ≤ -4.2 |
| A21C A26U C38U C87G C105U | ≤ -4.2 |
| A20U G46A C76A C87G G94C C105G U144A | ≤ -4.2 |
| A20U G50A A89U A91G | ≤ -4.2 |
| A20U U53A | -2.36 |
| A20U G48A G50A C76G C96G U135G | ≤ -4.2 |
| A20U U55A G68U C85G C105U G124A G140C | ≤ -4.2 |
| A20U A29C A30G C54A G67C G80U C93U G94A A97C C99U | ≤ -4.2 |
| A20U A28U C96G | ≤ -4.2 |
| A20U U56A A64C A107G G126U | ≤ -4.2 |
| A20U C57U | -2.23 |
| A20U C57A | -1.36 |
| A20U A24G A29C C38G G80C A89G C105U C116G | ≤ -4.2 |
| A20U A89U | -2.12 |

| Variant | polymerase ribozyme fitness (log ratio) |
| --- | --- |
| A20U G48A G68U G83C C103G A138G G143C | ≤ -4.2 |
| A20U A41U G48A A49G C96G A106G A107G U135G | ≤ -4.2 |
| A20U C57A G84U | -3.17 |
| A20G U56G G117C | -0.934 |
| A20U C125A | -2.05 |
| A20U A52C C54U G88U A107U C116A | ≤ -4.2 |
| A20U G83C G92A U127A G128U | ≤ -4.2 |
| A20U G59U G136C G141U | -3.78 |
| A20U U56A | -1.87 |
| A21C A24G A39G C54U U78G G94A C129G U134G G140U U145G | ≤ -4.2 |
| A20U A47C C57U A64C G84C U148G | ≤ -4.2 |
| A20U U61G C87U C95U | -3.33 |
| A20U G46C U56A C96U U135C A147G | ≤ -4.2 |
| A20U U101A | -2.4 |
| A20U C54A | -2.02 |
| A20U G42U U55G G62A | ≤ -4.2 |
| A20U A23U A24U C51U A60G C85G | ≤ -4.2 |
| A20U A40C | -0.959 |
| A21C A24U C38G C93U G117A | -2.15 |
| A20U U82G C93U | -2.36 |
| A20U U31G C43G A52U A73C C93U G94U C116G A121G C149U | ≤ -4.2 |
| A20U C93U G126A | -1.5 |
| A20U A47U A89U C96U G128U | ≤ -4.2 |
| A20U A23C C35U C75U C103G G136A | ≤ -4.2 |

| Variant | polymerase ribozyme fitness (log ratio) |
| --- | --- |
| A21C A24U C32A G80A C93U C95A | ≤ -4.2 |
| A20U C51U U55G C57G A120C | -3.76 |
| A20U U56A C76U G133A | ≤ -4.2 |
| A20U U53A U55A C118G | -3.98 |
| A20U C57U G59U G62U C76U C96G A147G | ≤ -4.2 |
| A20U A40U C69A | -2.77 |
| A20U C35A A41C C95U U145A | ≤ -4.2 |
| A21C A24G C38U G83A C99U | ≤ -4.2 |
| A20U C36A A41G U56A G65U A119G U127C | ≤ -4.2 |
| A20U A29U C43U A47G A49C C54G C95U C105A U145G A147G | ≤ -4.2 |
| A20U G62U G86A A107U G140A | ≤ -4.2 |
| A20U G25C G141A | -4.03 |
| A20U G58A C96U U111G G124A U148A | ≤ -4.2 |
| A20U A28C G83U C87A C99G G140A | ≤ -4.2 |
| A20U C96G A150U | 0.47 |
| A20U A97U | -2.04 |
| A20U U31C A49C C57U A60G G62C C96A | -4.15 |
| A20U A23C C35G G84A C125U | ≤ -4.2 |
| A20U A21U | -0.727 |
| A20U U45A G48U A64G A137U | ≤ -4.2 |
| A20U C36G G70A | -4.1 |
| A20U A30U C76U A89G A91C A122G U134G | ≤ -4.2 |
| A20U U55A C85A | -3.29 |
| A20U C35A G92U A110U | ≤ -4.2 |

| Variant | polymerase ribozyme fitness (log ratio) |
| --- | --- |
| A20U A49C G58C C87U | ≤ -4.2 |
| A21C A26U A60C G70C G81A G84U G92A A115U | ≤ -4.2 |
| A20U C27A U31G A40G G42U C96G A97G | ≤ -4.2 |
| A20U C72U C85A U134C A150C | ≤ -4.2 |
| A20U C54A A106C | -3.99 |
| A20U A52C | -2.87 |
| A20U A39C G48A G94A | ≤ -4.2 |
| A20U C57G C93U C123U | -2.57 |
| A20U C38G C57U G86A | -3.63 |
| A20U G50A U55G C85U A91U A137G | ≤ -4.2 |
| A20G U55A C96A U104G | -2.4 |
| A20U G81C A147U | -0.168 |
| A20U A23C C79U G94C C95U U148A | ≤ -4.2 |
| A20U A30C A41G G74U C93U | ≤ -4.2 |
| A20U C38U C75A C87G A107U C132U | ≤ -4.2 |
| A20U G92A A121U G141C | -4.03 |
| A20U A39C | -3.84 |
| A21C A23G A37C C95G | ≤ -4.2 |
| A20U A22U C43A G84C C108G C116G | ≤ -4.2 |
| A21C A26C A28C G70U A107C A147C | ≤ -4.2 |
| A20U A28U G42C G86U C93A C114U | -4.17 |
| A20U C32G U56G G81A C93U A107G C131U C132G U135G A147G | ≤ -4.2 |
| A21C A22U G86U U102C C116U A122G A138U | ≤ -4.2 |

Reference: the RNAGym collection of RNA variant scans (doi:10.1073/pnas.2313332121)
